Test results taken from PMC4754353.

Molecular target: Nrp1 immobilized on the BLI biosensor (UniProt Q9QWJ9)
Assay: BLI

Kd [nM] | Substance
29.8 | human glycyl-tRNA synthetase L129P mutant (L129P-GlyRS^CMT2D), non-tagged (enzyme)
209 | human glycyl-tRNA synthetase P234KY mutant (P234KY-GlyRS^CMT2D), non-tagged (enzyme)
